# Tests used:
# [1] = type: physicochemical
# Procedure: Stabilities of TLPs were determined at different temperatures. Shown are the first-order inactivation curves for TLP-ste incubated at 80° C. (Δ) and 90° C. (+), thermolysin at 90° C. (Δ), and the 8-fold mutant at 100° C. (●), respectively. […] Samples, taken at the various time points, were quickly cooled on ice (15 s) and transferred to 50° C. to prevent cold denaturation. Residual activity was determined using casein (0.8%) as a substrate in 50 mM TrisHCl (pH 7.5), 5 mM CaCl2 as described previously (Eijsink, V. G. H., Veltman, O. R., Aukema, W., Vriend, G. & Venema, G. Nature Struct. Biol. 2, 374-379 (1995)).
# [2] = test system: α-amylase from Bacillus licheniformis; assay: Hydrolysis of protease resistant α-amylase (SDS-PAGE); type: biochemical; conditions: 60 minutes
# Procedure: As an example of the enzymatic activity of the 8-fold mutant we tested the hydrolysis of protease resistant α-amylase from Bacillus licheniformis by the 8-fold mutant. B. licheniformis α-amylase (1 mg/ml) in 50 mM MOPS, pH 7.0, 5 mM CaCl2, 0.01% Triton X-100 was incubated with purified TLP-ste (1 μg/ml), the 8-fold mutant or without protease for 60 minutes at the temperature indicated. The reaction volume was 500 μL. […] Precipitates (only observed in the 100° C. samples) were collected by centrifugation and redissolved in 500 μL 6 M Urea. Both supernatants and redissolved precipitates were subjected to standard SDS-PAGE, including pre-treatment with sample loading buffer (5 minutes at 100° C.). The samples were identical in size (20 μL supernatant and 20 μL dissolved precipitate). Gels were stained with Coomassie-brilliant blue.
molecule,measurement,setting,value
"8-fold mutant: TLP-ste with A4T, T56A, G58A, T63F, S65P, A69P and a disulfide bridge G8C-N60C (protein) VAGTSTVCVGRGVLGDQKYINTTYSSYYGYYYLQDNTRGSGIFTYDGRNRTVLPGSLWADADCQFFAPYDAPAVDAHYYAGVVYDYYKNVHGRLSYDGSNAAIRSTVHYGRGYNNAFWNGSQMVYGDGDGQTFLPFSGGIDVVGHELTHAVTDYTAGLVYQNESGAINEAMSDIFGTLVEFYANRNPDWEIGEDIYTPGVAGDALRSMSDPAKYGDPDHYSKRYTGTQDNGGVHTNSGIINKAAYLLSQGGVHYGVSVNGIGRDKMGKIFYRALVYYLTPTSNFSQLRAACVQAAADLYGSTSQEVNSVKQAFNAVGVY",half life at 100° C.,[1],~3 h
same,half-life at 100° C. relative to the wild-type,[1],more than 1000 times
same,half-life 80° C.,"[1]; buffer, pH 5.3",stable
same,half-life 90° C.,"[1]; buffer, pH 5.3",stable
same,half-life 100° C.,"[1]; buffer, pH 5.3",2.83 h
same,degradation of B. licheniformis α-amylase,[2]; 80° C. and lower,No significant degradation
same,hydrolysis of B. licheniformis α-amylase,[2]; 100° C.,completely hydrolysed
